Target: Hfq65 (Escherichia coli, UniProt P0A6X3)
Conditions: dsRNA product (D16-FAM·R16) versus ssRNA substrate (D16-FAM)
Experimental: Annealing kinetics of molecular beacon (50 nM) to either Target or Target-A18 RNA (100 nM) by 0–200 nM Hfq hexamer, in 1X TNK (10 mM Tris·HCl pH 7.5, 50 mM NaCl, 50 mM KCl) buffer at 30°C was measured by stopped-flow fluorescence spectroscopy as described previously ([Soper et al., 2011]; [Panja and Woodson, 2012b]). Annealing progress curves were fit to single or double-exponential rate equations.

Chain of Hfq65 (P0A6X3 1-65): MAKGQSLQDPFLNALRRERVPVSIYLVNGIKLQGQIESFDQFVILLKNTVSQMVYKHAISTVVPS

Hfq65: truncated E. coli Hfq variant lacking the CTD
Krel = Kd(P)/Kd(S), Hfq65: 2.3

— article PMC5606850, “Acidic C-terminal domains autoregulate the RNA chaperone Hfq” (eLife, 2017)
